Laboratory results as given in patent US20080112926A1 (PROTAFFIN BIOTECHNOLOGIE, published 2008).
Changes are numbered by the printed parent chain.

B1: IL-8 mutant Δ6 F17RF21R E70RN71K (ligand)
chain: CQCIKTYSKPRHPKRIKELRVIESGPHCANTEIIVKLSDGRELCLDPKENWVQRVVEKFLKRARKS
notes: Δ6 means the first 6 N-terminal amino acids are deleted
B2: IL-8 mutant Δ6 F17RF21R E70K (ligand)
chain: B1 chain with R64K, K65N
notes: as for B1

Target: the molecule itself
Experiment: fluorescence anisotropy with bis-ANS in PBS, self-association (dimerisation), no GAG
Procedure: By recording the concentration dependent fluorescence anisotropy of the chemokine resulting from the extrinsic chromophore bisANS it was aimed to find out the dimerisation constant of the mutants. Measurements were performed in PBS starting with high concentrations (up to 4 μM protein) followed by stepwise dilution. For each data point, the anisotropy signal (r) recorded at 507 nm was averaged over 60 sec.
IL-8 oligomerisation has been reported to relevantly influence the proteins GAG binding properties. Set at monomeric concentration, IL-8 bound size defined oligosaccharides 1000-fold tighter than at dimeric concentration. Therefore, the oligomerisation properties of IL-8 mutants were investigated by fluorescence anisotropy. Since the IL-8 intrinsic fluorophore (Trp57) was not sensitive enough for all of the mutants, the extrinsic fluorophore bis-ANS was used for these measurements. […] The mutant with the highest koligo(koligo=460 nM), which therefore dimerised worst, was Δ6 F17RF21R E70RN71K. […] Also the impact of heparan sulphate addition was observed.

| Protein | koligo (oligomerisation constant) |
| --- | --- |
| B1 | 460 nM |
| B2 | 147 nM |
